From patent US20050064507A1, “Determining kinase specificity” (priority 2003, published 2005)

Key:
Assay type in all cases: biochemical
PKC-delta = target: T1, PKC-delta (Homo sapiens, UniProt Q05655); assay: In vitro kinase assay: peptide phosphorylation by PKC-delta
T1 construct: purchased Calbiochem
Procedure, shortened: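 Biotin-Lys-dansyl-Lys-Pro-Pro-Gly-linked proteomic peptides (12–21-residue core) phosphorylated by PKC-delta in HEPES/Triton/CaCl2/MgCl2 buffer with phosphatidyl serine and PMA, 100 μM [γ-32P]ATP, 30° C., ~10 min, stoichiometry ≤5%; streptavidin-plate capture. Signal normalized as % of best peptide substrate.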

PKC-alpha = target: T2, PKC-alpha (Homo sapiens, UniProt P17252); assay: In vitro kinase assay: peptide phosphorylation by PKC-alpha
T2 construct: purchased Calbiochem
Procedure, shortened: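 Purified active human PKC-alpha, 5-20 ng per well, phosphorylated biotinylated peptides in duplicate wells with 100 μM ATP including 1 uCi/well of ^32P-gamma ATP. The buffer was 100 mM HEPES, 0.05% Triton-X100, 1 mM CaCl2, 20 mM MgCl2, 0.2 mg/ml phosphatidyl serine and PMA 100 ng/ml. Reactions ran at 30° C., usually for 10 minutes, keeping stoichiometry under 5%. They were stopped with ATP/EDTA, captured on streptavidin plates, washed, and counted by scintillation.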

PKC-zeta = target: T3, PKC-zeta (Homo sapiens, UniProt Q05513); assay: In vitro kinase assay: peptide phosphorylation by PKC-zeta
T3 construct: purchased Calbiochem
T3 sequence (Q05513 1-592): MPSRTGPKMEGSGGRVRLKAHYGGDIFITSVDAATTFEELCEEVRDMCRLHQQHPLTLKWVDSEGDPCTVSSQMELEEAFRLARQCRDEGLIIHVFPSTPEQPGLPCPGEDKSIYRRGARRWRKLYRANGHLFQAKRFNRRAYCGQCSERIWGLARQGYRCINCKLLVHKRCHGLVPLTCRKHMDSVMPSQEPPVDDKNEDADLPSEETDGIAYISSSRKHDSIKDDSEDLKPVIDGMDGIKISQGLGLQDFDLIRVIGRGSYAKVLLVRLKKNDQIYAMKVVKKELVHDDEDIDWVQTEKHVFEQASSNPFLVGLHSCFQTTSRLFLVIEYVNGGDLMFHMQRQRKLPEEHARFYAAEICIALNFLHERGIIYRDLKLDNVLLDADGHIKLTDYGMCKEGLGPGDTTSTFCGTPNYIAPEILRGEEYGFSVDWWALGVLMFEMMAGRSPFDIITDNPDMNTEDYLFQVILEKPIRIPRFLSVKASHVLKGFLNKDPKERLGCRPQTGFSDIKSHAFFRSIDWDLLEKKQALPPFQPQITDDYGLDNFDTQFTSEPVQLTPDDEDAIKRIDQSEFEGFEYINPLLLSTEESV

T1 sequence (Q05655 whole entry): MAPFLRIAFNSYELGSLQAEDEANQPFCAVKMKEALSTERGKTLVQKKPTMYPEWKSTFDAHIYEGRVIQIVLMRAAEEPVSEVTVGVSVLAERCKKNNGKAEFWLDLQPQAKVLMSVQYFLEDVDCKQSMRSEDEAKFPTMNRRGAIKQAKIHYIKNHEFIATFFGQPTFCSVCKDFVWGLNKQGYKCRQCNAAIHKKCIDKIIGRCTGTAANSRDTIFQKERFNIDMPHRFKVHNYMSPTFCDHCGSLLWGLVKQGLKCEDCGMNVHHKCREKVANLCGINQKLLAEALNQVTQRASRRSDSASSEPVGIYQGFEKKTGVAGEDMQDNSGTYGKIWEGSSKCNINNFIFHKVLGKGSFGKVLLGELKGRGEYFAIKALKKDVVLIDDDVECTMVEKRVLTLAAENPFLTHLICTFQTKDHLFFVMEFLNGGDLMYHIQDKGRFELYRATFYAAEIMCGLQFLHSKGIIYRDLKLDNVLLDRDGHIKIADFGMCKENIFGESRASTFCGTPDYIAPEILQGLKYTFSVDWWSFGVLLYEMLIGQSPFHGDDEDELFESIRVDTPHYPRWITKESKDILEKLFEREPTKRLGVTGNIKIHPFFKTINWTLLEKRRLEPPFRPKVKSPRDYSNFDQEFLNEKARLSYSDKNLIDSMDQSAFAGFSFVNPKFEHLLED

Substance: 167 (GLPAPGEDKSIYRRGSRRWR) [compound 167]
- phosphorylation by PKC-delta (PKC-delta; peptide concentration 1 uM): 13
- phosphorylation by PKC-delta (PKC-delta; peptide concentration 10 uM): 24
- phosphorylation by PKC alpha (PKC-alpha; peptide concentration 1 uM): 27
- phosphorylation by PKC alpha (PKC-alpha; peptide concentration 10 uM): 7
- phosphorylation by PKC zeta (PKC-zeta; peptide concentration 1 uM): 5
- phosphorylation by PKC zeta (PKC-zeta; peptide concentration 10 uM): 37
